In US20230227833 one finds activity (% residual activity) data, which are given here for one sequence.

For this data set, the system named is Reverse transcriptase (RT). Nature of the data set: inhibition. Particulars: RNA strand 3' phosphate; DNA strand 3' dideoxy; 37 C; activity fully released at 55 C.

With “TCGAACGGGACGGCTGGCTGTGTGTGT / CCAGCCGTCC [analogs 6+7 (RNA/DNA)]”, the activity (% residual activity) is 16.
